In US20200216522A1 (DENALI THERAPEUTICS, published 2020):
Where a chain is given by its changes, count along the chain named.

T1: Peptide_011 (human)
T1 peptide: PTEDGSEEPGSETSD

T2: Peptide_005 (human)
T2 peptide: GDRKDQGGYTMHQDQ

T3: Peptide_001 (human)
T3 peptide: MAEPRQEFEVMEDHA

T4: Peptide_024 (human)
T4 peptide: DEAAGHVTQARMVSK

T5: Peptide_019 (human)
T5 peptide: AQPHTEIPEGTTAEE

T6: Peptide_017 (human)
T6 peptide: DEGAPGKQAAAQPHT

T7: Peptide_013 (human)
T7 peptide: SETSDAKSTPTAEDV

T8: Peptide_030 (human)
T8 peptide: DGKTKIATPRGAAPP

T9: Peptide_026 (human)
T9 peptide: RMVSKSKDGTGSDDK

T10: Peptide_046 (human)
T10 peptide: VAVVRTPPKSPSSAK

T11: Peptide_045 (human)
T11 peptide: REPKKVAVVRTPPKS

T12: Peptide_057 (human)
T12 peptide: KLDLSNVQSKCGSKD

T13: Peptide_050 (human)
T13 peptide: APVPMPDLKNVKSKI

T14: Peptide_049 (human)
T14 peptide: SRLQTAPVPMPDLKN

T15: Peptide_068 (human)
T15 peptide: QVEVKSEKLDFKDRV

T16: Peptide_065 (human)
T16 peptide: KCGSLGNIHHKPGGG

T17: Peptide_062 (human)
T17 peptide: VQIVYKPVDLSKVTS

T18: Peptide_081 (human)
T18 peptide: GDTSPRHLSNVSSTG

T19: Peptide_073 (human)
T19 peptide: THVPGGGNKKIETHK

T20: Peptide_071 (human)
T20 peptide: QSKIGSLDNITHVPG

B1: murine anti-Tau hybridoma antibody 17G2.A1 (antibody, V domains shown)
VH: QVQLQQPGAELVGPGSSVKLSCKASGYTFINYWIDWMKQSPGQGLEWIGNIYPSDSESHYNQKFTDKATLTVDISSSTAYLQLSSLTSEDSAVYYCALYSKGYWGQGTSVTVSS
VL: DVLMTQTPLSLPVTLGDQASISCRSSQNIVHTNGNTYLEWYLQKPGQSPKLLIYKLSSRFSGVPDRFSGSGSGTDFTLKISRVEAEDLGVYYCFQGSHLPFTFGGGTKLEIKR
notes: mouse IgG from hybridoma; also called anti-Tau 17G2.A1
B2: chimeric IgG clone 1A5 (antibody, V domains shown)
VH: EVQLQQSGAELVRPGASVKLSCTASGFNIKDSLIHWVKQRPEQGLEWIGWIDPEDGETKYAPKFQDKATKTADTSSNTAYLQLSSLTSEDTAIYYCASGEWDYWGQGTSVTVSS
VL: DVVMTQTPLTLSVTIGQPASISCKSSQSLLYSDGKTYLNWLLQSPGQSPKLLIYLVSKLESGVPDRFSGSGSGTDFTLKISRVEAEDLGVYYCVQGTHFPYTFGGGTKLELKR
notes: mouse-human chimeric IgG from HEK293
B3: chimeric IgG clone 1A1 (antibody, V domains shown)
VH: EVQLQQSGAELVRPGASVRLSCTASGFNIKDSLMHWLKQRPEQGLEWIGWIDPEDGETKYAPKFQDKATITADTSSNTAYLQLSSLTSEDTAIYYCTRRDWEGPWGQGTLVTVSA
VL: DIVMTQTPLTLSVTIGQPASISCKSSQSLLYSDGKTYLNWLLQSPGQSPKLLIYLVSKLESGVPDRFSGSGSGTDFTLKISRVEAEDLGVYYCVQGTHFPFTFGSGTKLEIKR
notes: mouse-human chimeric IgG from HEK293; also called anti-Tau 1A1; anti-Tau^1A1
B4: chimeric IgG clone 1G7 (antibody, V domains shown)
VH: B3 VH with L11V, R19K, A24T, E89G, T97A
VL: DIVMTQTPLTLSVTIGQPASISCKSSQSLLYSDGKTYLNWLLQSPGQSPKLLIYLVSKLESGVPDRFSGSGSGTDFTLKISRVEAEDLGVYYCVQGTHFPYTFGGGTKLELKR
notes: as for B2

Assays:
[1] = biological target: T1, Peptide_011; test: peptide array
Experimental: (§1) Chimeric IgG antibodies were diluted to a concentration of 5 μg/mL in 3% bovine serum albumin in Tris-buffered saline (10 mM Tris, pH 7.5, 150 mM NaCl) supplemented with 0.05% Tween®20 (3% BSA-TBST). Diluted antibodies were allowed to bind to peptides printed onto slides for 2 hours at room temperature as described in the PepStar™ user manual (JPT Technologies). Following extensive washing (5×5 minutes with TBST), slides were incubated with secondary antibodies goat anti-human IgG, Alexa Fluor 568 conjugate, 1 μg/mL in 3% BSA-TBST) for 1 hour at room temperature. After extensive washing, (5×5 minutes with TBST, then 5×5 minutes with ultrapure water), slides were dried overnight and imaged using an Opera Phenix™ system in the 568 nm channel. Images were aligned to peptide array definition files using Galviewer software obtained from JPT Technologies and ImageJ software with control human IgG serving as landmarks.
(§2) Full-length human Tau (encoded by the microtubule-associated protein Tau isoform 2 gene (MAPT), amino acid sequence NCBI Reference Sequence No. NP_005901.2, SEQ ID NO: 1, variant designation “2N4R”) was divided into 15 amino acid peptides, offset by 5 amino acids (overlapping by 10 amino acids). Peptides were synthesized and covalently attached to silica slides in triplicate with a spot size of 0.5 mm (obtained from JPT Technologies, Berlin, Germany). Antibodies muIgG were diluted to a concentration of 30 μg/mL in 3% bovine serum albumin in Tris-buffered saline (10 mM Tris, pH 7.5, 150 mM NaCl) supplemented with 0.05% Tween® 20 (3% BSA-TBST). Diluted antibodies were allowed to bind to peptides printed onto slides for 2 hours at room temperature as described in the Pepstar™ user manual (JPT Technologies). Following extensive washing (5×5 min TBST), slides were incubated with secondary antibodies (donkey anti-mouse IgG, Alexafluor 647 conjugate, 5 μg/mL in 3% BSA-TBST) for 1 hour at room temperature. After extensive washing, (5×5 minutes TBST, 5×5 minutes ultrapure water), slides were dried under a stream of nitrogen and imaged on the Opera Phenix in the 647 nm channel. Images were aligned to peptide array definition file using Galviewer software obtained from JPT Technologies and ImageJ software with control mouse IgG serving as landmarks.

[2] = biological target: T2, Peptide_005; test: peptide array
Experimental: as §1, §2

[3] = biological target: T3, Peptide_001; test: peptide array
Experimental: as §1, §2

[4] = biological target: T4, Peptide_024; test: peptide array
Experimental: as §1, §2

[5] = biological target: T5, Peptide_019; test: peptide array
Experimental: as §1, §2

[6] = biological target: T6, Peptide_017; test: peptide array
Experimental: as §1, §2

[7] = biological target: T7, Peptide_013; test: peptide array
Experimental: as §1, §2

[8] = biological target: T8, Peptide_030; test: peptide array
Experimental: as §1, §2

[9] = biological target: T9, Peptide_026; test: peptide array
Experimental: as §1, §2

[10] = biological target: T10, Peptide_046; test: peptide array
Experimental: as §1, §2

[11] = biological target: T11, Peptide_045; test: peptide array
Experimental: as §1, §2

[12] = biological target: T12, Peptide_057; test: peptide array
Experimental: as §1, §2

[13] = biological target: T13, Peptide_050; test: peptide array
Experimental: as §1, §2

[14] = biological target: T14, Peptide_049; test: peptide array
Experimental: as §1, §2

[15] = biological target: T15, Peptide_068; test: peptide array
Experimental: as §1, §2

[16] = biological target: T16, Peptide_065; test: peptide array
Experimental: as §1, §2

[17] = biological target: T17, Peptide_062; test: peptide array
Experimental: as §1, §2

[18] = biological target: T18, Peptide_081; test: peptide array
Experimental: as §1, §2

[19] = biological target: T19, Peptide_073; test: peptide array
Experimental: as §1, §2

[20] = biological target: T20, Peptide_071; test: peptide array
Experimental: as §1, §2

[21] = biological target: T21, full-length human Tau (Tau441; 2N4R), recombinant (human, UniProt P10636 1-758); test: SPR Biacore, IgG captured, r-Tau injected
T21 construct: made in E. coli, His6-Smt3 tag removed; biotinylated through amines for Octet and phage work; also called r-Tau; recombinant Tau
T21 sequence (P10636 other isoform, or with tags, fused parts or gaps limits assumed): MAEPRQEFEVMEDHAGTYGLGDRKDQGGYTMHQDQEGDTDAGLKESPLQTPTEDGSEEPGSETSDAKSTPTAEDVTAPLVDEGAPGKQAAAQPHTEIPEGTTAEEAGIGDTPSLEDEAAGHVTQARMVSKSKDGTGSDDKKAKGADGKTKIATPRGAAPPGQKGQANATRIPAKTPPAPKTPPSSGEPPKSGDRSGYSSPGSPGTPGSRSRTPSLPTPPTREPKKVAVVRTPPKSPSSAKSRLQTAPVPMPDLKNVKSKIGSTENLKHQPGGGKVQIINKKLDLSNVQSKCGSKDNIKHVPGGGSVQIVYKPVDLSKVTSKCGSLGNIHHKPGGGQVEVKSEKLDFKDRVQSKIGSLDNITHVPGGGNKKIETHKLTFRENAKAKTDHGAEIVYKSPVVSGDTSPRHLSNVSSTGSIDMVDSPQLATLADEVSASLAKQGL
Experimental: The affinity of chimeric IgG antibodies 1C7, 1A1, 1A5, 1D10, and 1G7 for recombinant Tau was determined by surface plasmon resonance using a Biacore™ T200 instrument. Biacore™ Series S CM5 sensor chips were immobilized with monoclonal mouse anti-human IgG (Fc) antibody (human antibody capture kit from GE Healthcare). 1 μg/mL of antibody was captured for 1 minute on each flow cell and serial 3-fold dilutions of recombinant Tau were injected at a flow rate of […]. Each sample was analyzed with a 3-minute association and a 10-minute dissociation. After each injection the chip was regenerated using 3M MgCl₂. Binding response was corrected by subtracting the RU from a flow cell capturing an irrelevant IgG at similar density. A 1:1 Languir model of simultaneous fitting of kₒₙ and koff was used for kinetics analysis.

[22] = biological target: T21, full-length human Tau (Tau441; 2N4R), …; test: Octet binning on biotin-r-Tau; competitor 1A5
Experimental: (§3) Epitope binning assays were performed using a FortéBio® Octet® RED384 instrument using FortéBio® Streptavidin biosensors. Biotinylated recombinant Tau was diluted to a concentration of 2 μg/mL in kinetic buffer (obtained from FortéBio®) and captured onto individual biosensors for 1 minute. A baseline was then established for 1 minute in kinetic buffer. The loaded biosensors were dipped into 10 μg/mL of the first chimeric IgG antibody until signal saturation, followed by dipping into 1 μg/mL of a second antibody. The binding for the second antibody was normalized to its total binding in the absence of the first antibody.

[23] = biological target: T21, full-length human Tau (Tau441; 2N4R), …; test: Octet binning on biotin-r-Tau; competitor 1D10
Experimental: as §3

Binder	binding result [1]	binding result [2]	binding result [3]	binding result [4]	binding result [5]	binding result [6]	binding result [7]	binding result [8]	binding result [9]	binding result [10]	binding result [11]	binding result [12]	binding result [13]	binding result [14]	binding result [15]	binding result [16]	binding result [17]	binding result [18]	binding result [19]	binding result [20]	also measured
B1	no binding (tested: 30 ug/mL)	no binding (tested: 30 ug/mL)	no binding (tested: 30 ug/mL)	no binding (tested: 30 ug/mL)	no binding (tested: 30 ug/mL)	no binding (tested: 30 ug/mL)	no binding (tested: 30 ug/mL)	no binding (tested: 30 ug/mL)	no binding (tested: 30 ug/mL)	no binding (tested: 30 ug/mL)	no binding (tested: 30 ug/mL)	no binding (tested: 30 ug/mL)	no binding (tested: 30 ug/mL)	no binding (tested: 30 ug/mL)	no binding (tested: 30 ug/mL)	no binding (tested: 30 ug/mL)	no binding (tested: 30 ug/mL)	no binding (tested: 30 ug/mL)	no binding (tested: 30 ug/mL)	no binding (tested: 30 ug/mL)	–
B2	no binding (tested: 5 ug/mL)	no binding (tested: 5 ug/mL)	no binding (tested: 5 ug/mL)	no binding (tested: 5 ug/mL)	no binding (tested: 5 ug/mL)	no binding (tested: 5 ug/mL)	no binding (tested: 5 ug/mL)	no binding (tested: 5 ug/mL)	no binding (tested: 5 ug/mL)	no binding (tested: 5 ug/mL)	no binding (tested: 5 ug/mL)	no binding (tested: 5 ug/mL)	no binding (tested: 5 ug/mL)	no binding (tested: 5 ug/mL)	no binding (tested: 5 ug/mL)	no binding (tested: 5 ug/mL)	no binding (tested: 5 ug/mL)	no binding (tested: 5 ug/mL)	no binding (tested: 5 ug/mL)	no binding (tested: 5 ug/mL)	Kd [21]: 0.2 nM; normalized binding of second antibody [22]: -0.13; normalized binding of second antibody [23]: -0.35
B3	no binding (tested: 5 ug/mL)	no binding (tested: 5 ug/mL)	no binding (tested: 5 ug/mL)	no binding (tested: 5 ug/mL)	no binding (tested: 5 ug/mL)	no binding (tested: 5 ug/mL)	no binding (tested: 5 ug/mL)	no binding (tested: 5 ug/mL)	no binding (tested: 5 ug/mL)	no binding (tested: 5 ug/mL)	no binding (tested: 5 ug/mL)	no binding (tested: 5 ug/mL)	no binding (tested: 5 ug/mL)	no binding (tested: 5 ug/mL)	no binding (tested: 5 ug/mL)	no binding (tested: 5 ug/mL)	no binding (tested: 5 ug/mL)	no binding (tested: 5 ug/mL)	no binding (tested: 5 ug/mL)	no binding (tested: 5 ug/mL)	Kd [21]: 0.02 nM
B4	no binding (tested: 5 ug/mL)	no binding (tested: 5 ug/mL)	no binding (tested: 5 ug/mL)	no binding (tested: 5 ug/mL)	no binding (tested: 5 ug/mL)	no binding (tested: 5 ug/mL)	no binding (tested: 5 ug/mL)	no binding (tested: 5 ug/mL)	no binding (tested: 5 ug/mL)	no binding (tested: 5 ug/mL)	no binding (tested: 5 ug/mL)	no binding (tested: 5 ug/mL)	no binding (tested: 5 ug/mL)	no binding (tested: 5 ug/mL)	no binding (tested: 5 ug/mL)	no binding (tested: 5 ug/mL)	no binding (tested: 5 ug/mL)	no binding (tested: 5 ug/mL)	no binding (tested: 5 ug/mL)	no binding (tested: 5 ug/mL)	Kd [21]: 0.1 nM; normalized binding of second antibody [22]: -0.04; normalized binding of second antibody [23]: -0.12
